Source: patent US20160348147A1, “SYSTEMS AND DEVICES FOR PROTEASE DETECTION BASED ON ENGINEERED POLYMERS AND BIOPOLYMERS AND METHODS OF USE” (DUKE UNIVERSITY, priority 2014, published 2016)

Legend:
[1] = test system: endogenous MMP-1 in human serum; assay: Time-dependent aggregation (OD350) of ELP-substrate fusion in diluted human serum (40%); assay type: biochemical; settings: diluted serum, without any added MMP-1, after 400 minutes, 37° C.
Protocol: We performed the proteolysis reactions either in 100% protease buffer or in a mixture of human serum and buffer (40% (v/v) serum, 50% (v/v) buffer, 10% (v/v) ELP-substrate solution in water). The proteolysis buffer (100 mM HEPES, CaCl2 20 mM, MgCl2 1.0 mM, ZnCl2 100 μM, NaCl 0.5 M for diluted serum and 0.1 M for buffer solutions) was made experimentally in our lab based on previously published assays (Patterson, J. & Hubbell, J. A. Biomaterials 2010, 31, 7836-7845; Turk, B. E. et al., Nature Biotechnology 2001, 19, 661-667; Lowe, S. B. et al., Acs Nano 2012, 6, 851-857). We investigated proteolysis in two ways. In the first approach, we incubated solutions of the ELP-substrate fusion with MMP-1 (100 ng/mL) for 12 h at 40° C. temperature and measured the optical density at 350 nm (OD350) before and after the incubation. In the second approach, we incubated the ELP-substrate fusion with varying concentrations of MMP-1 (0.02 ng/mL to 200 ng/mL) in buffer or in diluted human serum, at 40° C. or 37° C. respectively, a temperature that is above the CMT of the ELP, and monitored the changes OD350 as a function of time (kinetic study). For the kinetic studies, we added the enzyme to the solution after the optical density of the solution reached a steady-state value and repeated the experiments at least three times. […]

[2] = biological target: T1, Human MMP-1 catalytic domain (Homo sapiens, UniProt P03956); assay: Time-dependent aggregation (OD350) of ELP-substrate fusion with MMP-1 in proteolysis buffer; assay type: biochemical; settings: 50 nM MMP-1 inhibitor added prior to 50 ng/mL (2.5 nM) MMP-1; ELP-substrate fusion 100 μM, 40° C., protease buffer; even after 900 minutes
T1 construct: Human MMP-1 catalytic domain (recombinant, produced in E. coli, 19.9 kDa, >95% purity); purchased Enzo Life Sciences (Farmingdale, N.Y.); host or cells: E. coli
T1 sequence (P03956 100-269 limits assumed): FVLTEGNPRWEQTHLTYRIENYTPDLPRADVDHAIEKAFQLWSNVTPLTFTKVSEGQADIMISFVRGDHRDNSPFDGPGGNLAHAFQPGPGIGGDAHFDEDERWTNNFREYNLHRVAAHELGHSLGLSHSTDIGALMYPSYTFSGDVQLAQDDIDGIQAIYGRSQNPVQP

[3] = Thermal behavior by optical turbidimetry and dynamic light scattering; assay type: physicochemical; settings: concentration of 100 μM
Protocol: We confirmed the purity and molecular weight of the purified peptides by electrophoresis (10-20% gradient […] SDS-PAGE, Thermo Scientific, CA) and by matrix-assisted laser desorption/ionization mass spectrometry. Mass spectrometry samples were prepared by mixing the enzymatic reaction product with sinapinic acid in 1:10 ratio. 1 μL of the sample/matrix mixture was then loaded on the grid and the measurements were performed on a Voyager-DE-Pro instrument (Applied Biosystems, Germany). To determine the concentration of the ELP-substrate fusion solutions we used a calculated extinction coefficient (Gill, S. C. & Vonhippel, P. H. Analytical Biochemistry 1989, 182, 319-326) or lyophilized the polypeptide solution. We studied the thermal behavior of the ELP-substrate fusion constructs in both proteolysis buffer (see below) and diluted human serum in the presence and absence of MMP-1 using optical turbidimetry on a temperature-programmed UV-vis spectrometer (Cary 300, Agilent Technologies). To characterize the size of the micelles and aggregates, we used single angle dynamic light scattering (DLS; DynaPro, Protein Solution).
FIG. 2 presents optical densities at 350 nm (OD350) and hydrodynamic diameters of ELP-substrate fusion as a function of temperature prior to, and after, enzymatic reaction. […] These changes are consistent with the self-assembly of ELP-substrate fusions (unimers) into micelles as the temperature is raised above the CMT (Ghoorchian, A. et al., The Journal of Physical Chemistry. B 2013, 117, 8865-8874). We note that there is a slight local maximum in both the optical density and hydrodynamic diameter at temperatures slightly above the CMT, which has been observed previously (Hassouneh, W., Duke University, PhD thesis, 2013); the origin of this small peak is, as yet, unclear.

active PSA = active PSA (Homo sapiens, UniProt P07288); assay: Optical density of PSA peptide before and after incubation with active PSA; assay type: biochemical; settings: 100 μM, 20 ng/mL active PSA, protease buffer, 37° C., 2 hours
active PSA, sequence (P07288 25-261): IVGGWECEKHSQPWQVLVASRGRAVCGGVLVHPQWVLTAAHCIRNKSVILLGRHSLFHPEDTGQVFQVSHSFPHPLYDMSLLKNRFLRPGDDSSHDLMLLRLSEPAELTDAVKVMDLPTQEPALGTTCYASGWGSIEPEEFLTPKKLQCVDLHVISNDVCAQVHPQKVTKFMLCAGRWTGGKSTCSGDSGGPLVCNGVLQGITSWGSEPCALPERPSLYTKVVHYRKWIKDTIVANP
Protocol: We designed a number of genes and replaced the MMP-1 sensitive peptide described above with a PSA-sensitive peptide sequence. One such example is: M(GVGVP)60[…] (SEQ ID NO:6; referred to herein as PSA peptide). Optical density measurements of 100 μM solution of PSA peptide were obtained prior to and after incubation with 20 ng/mL active PSA in protease buffer at 37° C. for 2 hours.

MMP-1 = biological target: T2, MMP-1 (Homo sapiens, UniProt P03956); assay: Transition temperature of UCST biopolymer before and after incubation with MMP-1; assay type: biochemical; settings: 25 μM, 25 ng/mL MMP-1, 37° C.
T2 sequence (P03956 100-469): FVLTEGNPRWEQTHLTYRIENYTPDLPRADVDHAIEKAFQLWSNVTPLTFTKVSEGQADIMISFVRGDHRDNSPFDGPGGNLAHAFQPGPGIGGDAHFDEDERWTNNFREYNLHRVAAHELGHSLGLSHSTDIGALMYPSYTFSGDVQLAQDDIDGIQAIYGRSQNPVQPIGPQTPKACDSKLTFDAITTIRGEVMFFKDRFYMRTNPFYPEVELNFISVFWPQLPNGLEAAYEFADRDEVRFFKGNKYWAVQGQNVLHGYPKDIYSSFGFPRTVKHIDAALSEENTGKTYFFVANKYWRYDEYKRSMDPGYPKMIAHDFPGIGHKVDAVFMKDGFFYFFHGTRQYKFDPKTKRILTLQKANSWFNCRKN
Excerpt: To exemplify the use of UCST peptides, we changed our system by incorporating a number of UCST biopolymers with the MMP-1 substrate, for example: M(YPSDGRGQ)40YGDGQ VPMSMRGGDEGQQDDEEGY (SEQ ID NO:7; referred to herein as the A4 construct). Cleavage of the protease-sensitive peptide between S and M in this sequence at a constant temperature would increase the transition temperature, which can cause the solution to transition from clear to cloudy. The time that takes for the transition to happen depends on the enzyme concentration similar to in the manner in which the LCST, micellar-based assays described above function.
Accordingly, aggregation time can be used to estimate the enzyme concentration in an unknown solution.

Compound: COc1ccc(S(=O)(=O)N(CC(=O)NO)CC(C)C)cc1 [NNGH, N-isobutyl-N-(4-methoxyphenylsulfonyl)glycyl hydroxamic acid, reference compound]
- aggregation in diluted serum with added MMP-1 inhibitor [1]: no aggregation
- change in optical density upon addition of the inhibitor [2]: no significant change in optical density

Compound: (GVGVP)60 [reference compound]
- soluble unimer-aggregate Tt [3]: ≈ 37 °C

Compound: M(GVGVP)60GDGQSSIYSQTEEQQDDEEG (MGVGVPGDGQSSIYSQTEEQQDDEEG) [PSA peptide]
- optical density after incubation with active PSA (active PSA): increase in optical density of the solution above the transition temperature

Compound: M(YPSDGRGQ)40YGDGQ VPMSMRGGDEGQQDDEEGY (MYPSDGRGQYGDGQVPMSMRGGDEGQQDDEEGY) [A4 construct, MMP-sensitive-UCST biopolymer]
- transition temperature prior to and after incubation with MMP-1 (MMP-1): change in transition temperature
